US20190040156A1

Tests used:
[1] = target: human TNFα (human) (UniProt P01375); assay: CG-MALS of antibody:TNFα complexes, molar ratios about 0.5 to 5.0, antibody 10 µg/mL, PBS pH 7.2
[2] = target: human FcγRI (CD64) (human) (UniProt P12314); assay: SPR, Biacore T200, antibody captured on protein A, FcγR as analyte, 37 °C, N=3
[3] = target: human FcγRIIb (CD32b) (human) (UniProt P31994); assay: as above
human FcγRIIb (CD32b) (human), sequence (P31994 43-217 limits assumed): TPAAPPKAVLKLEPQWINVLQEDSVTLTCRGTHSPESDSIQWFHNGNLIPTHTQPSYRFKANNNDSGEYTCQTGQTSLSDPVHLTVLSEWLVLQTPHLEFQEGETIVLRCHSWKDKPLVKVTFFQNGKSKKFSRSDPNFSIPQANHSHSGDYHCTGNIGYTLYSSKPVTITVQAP

human TNFα (human), sequence (P01375 77-233 limits assumed): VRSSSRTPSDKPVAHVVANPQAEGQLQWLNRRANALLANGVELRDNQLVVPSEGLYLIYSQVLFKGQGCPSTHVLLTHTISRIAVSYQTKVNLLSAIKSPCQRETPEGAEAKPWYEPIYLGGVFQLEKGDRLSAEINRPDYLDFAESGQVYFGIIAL
human FcγRI (CD64) (human), sequence (P12314 16-288 limits assumed): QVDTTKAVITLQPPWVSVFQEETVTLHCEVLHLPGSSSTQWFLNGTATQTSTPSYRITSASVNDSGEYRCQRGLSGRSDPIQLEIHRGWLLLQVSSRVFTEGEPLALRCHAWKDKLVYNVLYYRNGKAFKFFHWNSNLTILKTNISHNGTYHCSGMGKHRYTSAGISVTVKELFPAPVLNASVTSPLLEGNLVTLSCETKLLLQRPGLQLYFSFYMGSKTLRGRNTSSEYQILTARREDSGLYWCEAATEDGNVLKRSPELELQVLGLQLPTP

## parental anti-TNFα antibody (adalimumab, as described in U.S. Pat. No. 6,090,382)
[1]
  maximum immune complex weight average molecular weight: > 1300 kDa
[2]
  Kd: 0.0563 nM
[3]
  Kd: 5730 nM
